Legend:
hAng-2FD-mFc S-480-P = biological target: T1, hAng-2FD-mFc S-480-P (Homo sapiens, UniProt O15123, S480P); test: Ang-2FD-mFc point mutant binding experiment (SPR), S-480-P; details: S-480-P mutant captured; antibody/peptibody at 100 nM; 25° C.
T1 construct: made in house
Source text: (§1) To further characterize binding between hAng2 and anti-hAng2 mAbs of the invention, seven variant hAng2-FD-mFc proteins were generated, each containing a single point mutation. Amino acids selected for mutation were based on the difference in sequence between hAng-2 and hAng-1 in the region that interacts with hTie-2 (FIG. 1). In particular, amino acids within the fibrinogen-like domain (FD) of Ang-2 which are believed to interact with Tie-2 based on crystal structure analysis, but which differ from the corresponding amino acid in Ang-1, were individually mutated to the corresponding hAng-1 residue. The results of this example indicate the amino acid residues of hAng-2 with which the Ang-2 preferential binding antibodies interact.
(§2) In this experiment, each of the seven hAng-2FD-mFc mutant proteins were captured (˜147-283 RU) on an anti-mouse-Fc surface created through direct chemical coupling to a BIACORE™ chip. Then each Ang-2 antibody (or peptibody, as the case may be) at 100 nM was injected over the captured mFc-tagged hAng-2FD protein surface at a flowrate of 50 μl/min for 180 sec, and the dissociation of variant hAng2-FD-mFc and antibody was monitored in real time for 20 min at 25° C.

[1] = test system: Monkey Ang-2FD-hFc binding to hTie-2-mFc; test: ELISA blocking of monkey Ang-2FD-hFc binding to hTie-2-mFc; assay type: biochemical; details: 16.67 nM antibody; 2 nM Ang-2FD-hFc
Experimental: Tie-2 is a natural receptor for Ang-2. Anti-Ang-2 antibodies were tested for their ability to block Ang-2 binding to human Tie-2 (hTie-2). hTie-2-mFc (a chimeric construct consisting of human Tie-2 conjugated to mouse IgG; SEQ ID NO:525) was coated onto 96-well plates at a concentration of 2 μg/ml and incubated overnight followed by washing four times in wash buffer (PBS with 0.05% Tween-20). The plate was then blocked with PBS (Irvine Scientific, Santa Ana, Calif.) containing 0.5% BSA (Sigma-Aldrich Corp., St. Louis, Mo.) for one hour at room temperature. In a separate plate, purified anti-Ang-2 antibodies, at a starting concentration of 50 nM, were serially diluted by a factor of three across the plate. Human, mouse or monkey Ang-2FD protein conjugated to human IgG (Ang-2FD-hFc) were added to final concentrations of 2 nM, 8 nM, or 2 nM respectively and incubated for one hour at room temperature. The antibody/Ang-2FD-Fc mixture was then added to the plate containing hTie-2-mFc and incubated for one hour at room temperature. Detection of Ang-2FD-hFc bound to hTie-2-mFc protein was determined with Horse-Radish Peroxidase (HRP) conjugated to a-human IgG antibody (Jackson Immuno Research Lab, West Grove, Pa.) and developed by standard colorimetric response using tetramethylbenzidine (TMB) substrate (BD Biosciences, San Jose, Calif.). Absorbance was read at OD450 for 0.1 sec.

[2] = test system: Ang-1-mediated Tie-2 phosphorylation in EA.hy926 cells; test: Inhibition of Ang-1-mediated Tie-2 phosphorylation in EA.hy926 cells; assay type: cell-based, human; details: up to 400 nM
Experimental: EA.hy926 cells (Edgell et al., Proc. Natl. Acad. Sci. USA 80:3734-3737 (1983)) were plated at 5×10^6 cells per 10 cm dish in 10 ml DMEM with 10% FBS, HAT, L-glutamine and penicillin/streptomycin. After 24 hours, cells were serum-starved for 1 hour in 10 ml DMEM+1 mg/ml BSA. Cells were then stimulated for 10 minutes with 500 ng/ml of recombinant human Ang-1 (R&D Systems) in the presence of either an irrelevant isotype control antibody (“9E10”) at 400 nM or the anti-Ang-2 antibody H1H685P, or control agents (Control I, Control II, Control IV, or Control V) at concentrations ranging from 10 to 400 nM.
Following incubation, cells were lysed and Tie-2 was immunoprecipitated as described by Daly et al., Proc. Natl. Acad. Sci. USA 103:15491-15496 (2006). Immune complexes were collected by incubation with protein A/G beads (Santa Cruz Biotechnology, Santa Cruz, Calif.) for 60 min. Beads were washed with cold lysis buffer and bound proteins were eluted by heating in SDS sample buffer. Samples were then subjected to Western blot analysis with monoclonal antibodies against Tie-2 or phosphotyrosine (clone 4G10, Millipore, Billerica, Mass.).
Signals were detected using HRP-conjugated secondary antibodies and ECL reagents (GE Healthcare, Piscataway, N.J.). X-ray films were scanned and the phospho-Tie-2 and Tie-2 signals were quantified using ImageJ software. […]

[3] = test system: Tie-2 phosphorylation (Ang-2-mediated) in HUVECs; test: Inhibition of Ang-2-mediated Tie-2 phosphorylation in FOXO1-adenovirus infected HUVECs; assay type: cell-based, human; details: antibody 0.5 μg/ml
Experimental: Further, the inventors have shown that infection of HUVECs with an adenovirus encoding FOXO1 results in expression and secretion of Ang-2, followed by activation of Tie-2 phosphorylation (Daly et al. 2006 PNAS 103:15491).
Anti-Ang-2 antibodies were tested for their ability to inhibit Tie-2 phosphorylation. Briefly, 7×10^5 HUVECs (Vec Technologies, Rensselaer, N.Y.) were plated in 6 cm cell culture dishes in 3.5 ml of MCDB131 Complete medium (Vec Technologies, Rensselaer, N.Y.). The following day, the cells were washed with Opti-MEM (Invitrogen Corp., Carlsbad, Calif.) and fed with 2 ml of Opti-MEM. […] Cells were then washed with MCDB131 and fed with 2 ml of MCDB131 containing anti-Ang-2 antibodies at a concentration of 0.5 μg/ml. At twenty hours post infection, cells were lysed and subjected to Tie-2 immunoprecipitation as described by Daly et al., Proc. Natl. Acad. Sci. USA 103:15491-15496 (2006). Immunoglobulin was collected on protein A/G beads (Santa Cruz Biotechnology, Santa Cruz, Calif.) for one hour. […] Signals were detected using HRP-conjugated secondary antibodies and ECL reagents (GE Healthcare, Piscataway, N.J.). X-Ray films were scanned and the phospho-Tie-2 and Tie-2 signals were quantified using ImageJ software. […]

WT Ang-2FD-mFc construct = WT Ang-2FD-mFc construct (Homo sapiens, UniProt O15123); test: Ang-2FD-mFc point mutant binding experiment (SPR), wild-type; details: WT hAng-2FD-mFc captured; antibody/peptibody at 100 nM; 25° C.
Source text: as §1, §2

T1 sequence (O15123 with tags, fused parts or gaps S480P): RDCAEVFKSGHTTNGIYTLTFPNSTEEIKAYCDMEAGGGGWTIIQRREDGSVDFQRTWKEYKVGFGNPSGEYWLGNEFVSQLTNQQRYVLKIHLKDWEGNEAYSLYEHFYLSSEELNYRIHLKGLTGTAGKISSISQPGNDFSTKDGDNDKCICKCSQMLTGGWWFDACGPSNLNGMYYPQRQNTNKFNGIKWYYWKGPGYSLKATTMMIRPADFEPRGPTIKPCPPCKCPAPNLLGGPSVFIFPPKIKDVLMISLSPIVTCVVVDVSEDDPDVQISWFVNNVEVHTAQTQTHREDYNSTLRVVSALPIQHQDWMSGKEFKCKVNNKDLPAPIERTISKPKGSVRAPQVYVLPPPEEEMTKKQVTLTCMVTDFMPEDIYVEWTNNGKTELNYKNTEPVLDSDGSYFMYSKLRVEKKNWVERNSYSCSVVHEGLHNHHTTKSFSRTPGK
WT Ang-2FD-mFc construct, sequence (O15123 with tags, fused parts or gaps): as the sequence (O15123 with tags, fused parts or gaps S480P) above, with P199S counted along it
Monkey Ang-2FD-hFc binding to hTie-2-mFc, sequence (as listed by the source): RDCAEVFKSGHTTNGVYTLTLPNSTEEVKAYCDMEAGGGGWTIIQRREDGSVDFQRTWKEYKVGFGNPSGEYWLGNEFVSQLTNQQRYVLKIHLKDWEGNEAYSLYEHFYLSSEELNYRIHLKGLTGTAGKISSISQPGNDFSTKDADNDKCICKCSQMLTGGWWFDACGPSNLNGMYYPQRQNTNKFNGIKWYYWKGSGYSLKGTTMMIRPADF
Monkey Ang-2FD-hFc binding to hTie-2-mFc, sequence (Q02763 with tags, fused parts or gaps Q346P/T695I partner limits assumed): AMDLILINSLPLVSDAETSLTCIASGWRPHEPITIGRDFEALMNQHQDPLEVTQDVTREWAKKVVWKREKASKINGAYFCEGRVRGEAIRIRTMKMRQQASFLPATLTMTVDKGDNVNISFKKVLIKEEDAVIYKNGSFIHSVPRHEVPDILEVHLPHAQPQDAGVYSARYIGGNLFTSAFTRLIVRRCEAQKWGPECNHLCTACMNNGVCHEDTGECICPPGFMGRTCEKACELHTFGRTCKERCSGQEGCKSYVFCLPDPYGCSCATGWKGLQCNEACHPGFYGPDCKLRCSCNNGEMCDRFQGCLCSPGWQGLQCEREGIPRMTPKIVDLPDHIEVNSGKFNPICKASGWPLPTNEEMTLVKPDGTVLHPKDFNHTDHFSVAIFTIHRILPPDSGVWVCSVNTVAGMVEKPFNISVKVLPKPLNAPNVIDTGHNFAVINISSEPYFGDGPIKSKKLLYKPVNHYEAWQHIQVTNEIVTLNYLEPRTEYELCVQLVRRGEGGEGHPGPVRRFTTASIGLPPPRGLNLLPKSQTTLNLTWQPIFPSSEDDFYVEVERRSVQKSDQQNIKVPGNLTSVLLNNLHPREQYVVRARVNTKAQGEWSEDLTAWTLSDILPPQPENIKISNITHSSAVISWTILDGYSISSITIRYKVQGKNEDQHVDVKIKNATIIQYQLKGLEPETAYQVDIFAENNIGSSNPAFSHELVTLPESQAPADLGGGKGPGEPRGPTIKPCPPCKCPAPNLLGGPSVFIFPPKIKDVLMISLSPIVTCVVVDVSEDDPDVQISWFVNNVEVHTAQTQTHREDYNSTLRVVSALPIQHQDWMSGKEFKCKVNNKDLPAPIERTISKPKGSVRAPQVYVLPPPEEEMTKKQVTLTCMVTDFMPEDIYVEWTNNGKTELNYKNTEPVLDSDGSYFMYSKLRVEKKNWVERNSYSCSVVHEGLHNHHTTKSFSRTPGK

For “H1H685P: human anti-Ang-2 antibody, HCVR/LCVR SEQ ID NOs 18/20; also referred to as mAb1 [Antibody H1H685P]”, the Kd (hAng-2FD-mFc S-480-P) was 0.205 nM, the RU (hAng-2FD-mFc S-480-P) was 161.13 RU and the “Percent Blocking of Ang-2FD Binding to Tie-2, Monkey Ang-2FD-hFc” value [1] was 62.2%. The “Inhibitory effect on Ang-1-induced Tie-2 phosphorylation (in words)” value [2] was “no significant inhibitory effect”, the “Inhibition of Tie-2 phosphorylation” value [3] was “+++ (75-100%)” and the “Inhibition of Tie-2 phosphorylation (in words)” value [3] was “Especially robust inhibition”. It also gave a Kd (WT Ang-2FD-mFc construct) of 0.0223 nM and an RU (WT Ang-2FD-mFc construct) of 210.70 RU.

Reference: patent publication US9926369B2, “Methods for treating hepatocellular cancer by administering an anti-Ang-2 antibody” (Regeneron Pharmaceuticals, Inc., priority 2009, dated 2018)
